From the supplement of paper PMC9233669 come the findings set out here.

Fewer inactive variants are shown than the library holds.

One data set concerns biotinyl-Phe-oxazolone. Put plainly: self-aminoacylation, catalytic enhancement (BFO) (fold over background); higher = more active; k-Seq, kA / k0A0; sequences stand for … in GGGAAUGGAUCCACAUCUACGAAUUC…UUCACUGCAGACUUGACGAAGCUG
A digest of the protocol: (§1)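 Mutagenized RNA pools with a 21-nt variable region (0.43 μM) reacted with each biotinyl-aminoacyl-oxazolone at 2–1250 μM. Reactions ran in 50 μL HEPES/NaCl/KCl/MgCl2/CaCl2 buffer with 5% acetonitrile, pH 6.9–7.0, for 90 minutes at room temperature. Streptavidin-captured RNA was quantified by triplicate qPCR and Illumina sequencing, and per-sequence fraction reacted was fit to a pseudo-first-order model with 1000 bootstraps. Catalytic enhancement is median kA divided by the uncatalyzed rate, the low-activity peak of a bimodal Gaussian fit.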

The next data set relates to biotinyl-Ile-oxazolone. Put plainly: self-aminoacylation, catalytic enhancement (BIO) (fold over background); higher = more active; k-Seq, kA / k0A0; sequences stand for … in GGGAAUGGAUCCACAUCUACGAAUUC…UUCACUGCAGACUUGACGAAGCUG
The essentials: as §1

Another data set relates to biotinyl-Met-oxazolone. The data set is described as follows: self-aminoacylation, catalytic enhancement (BMO) (fold over background); higher = more active; k-Seq, kA / k0A0; sequences stand for … in GGGAAUGGAUCCACAUCUACGAAUUC…UUCACUGCAGACUUGACGAAGCUG
A digest of the protocol: as §1

A further data set concerns biotinyl-Val-oxazolone. Put plainly: self-aminoacylation, catalytic enhancement (BVO) (fold over background); higher = more active; k-Seq, kA / k0A0; sequences stand for … in GGGAAUGGAUCCACAUCUACGAAUUC…UUCACUGCAGACUUGACGAAGCUG
The essentials:
as §1

Another data set deals with biotinyl-Leu-oxazolone. Put plainly: self-aminoacylation, catalytic enhancement (BLO) (fold over background); higher = more active; k-Seq, kA / k0A0; sequences stand for … in GGGAAUGGAUCCACAUCUACGAAUUC…UUCACUGCAGACUUGACGAAGCUG
The essentials:
as §1

The next data set concerns biotinyl-Trp-oxazolone. Put plainly: self-aminoacylation, catalytic enhancement (BWO) (fold over background); higher = more active; k-Seq, kA / k0A0; sequences stand for … in GGGAAUGGAUCCACAUCUACGAAUUC…UUCACUGCAGACUUGACGAAGCUG
A digest of the protocol:
as §1

For “CCACGCUUCAAGCAAUCGGUA [Fam1B.1 aminoacylation ribozyme variant]”, the self-aminoacylation came to 1.37 in the data set on biotinyl-Phe-oxazolone; 0.724 in the data set with biotinyl-Ile-oxazolone; 0.873 in the data set with biotinyl-Met-oxazolone; 1.14 in the data set on biotinyl-Val-oxazolone; 0.943 with biotinyl-Leu-oxazolone; 1.13 in the data set on biotinyl-Trp-oxazolone.
For “CUCCUUCAAACAAUCGUUCUG [Fam1A.1 aminoacylation ribozyme variant]”, the self-aminoacylation in the data set on biotinyl-Phe-oxazolone worked out at 1.68; in the data set with biotinyl-Ile-oxazolone, 0.51; with biotinyl-Met-oxazolone it was 0.501; in the data set with biotinyl-Val-oxazolone, 0.631; with biotinyl-Leu-oxazolone, 0.472; in the data set on biotinyl-Trp-oxazolone, 0.785.
Consider “CUACUUAAAACAAUCGGUAUG [Fam1A.1 aminoacylation ribozyme variant]”, for which the self-aminoacylation was found to be 0.513 with biotinyl-Phe-oxazolone; 0.556 with biotinyl-Ile-oxazolone; 0.55 in the data set with biotinyl-Met-oxazolone; 0.574 with biotinyl-Val-oxazolone; 0.53 in the data set with biotinyl-Leu-oxazolone; 0.339 with biotinyl-Trp-oxazolone.
For the sequence “CUACCUCACACAAUCGGUCUG [Fam1A.1 aminoacylation ribozyme variant]”, the self-aminoacylation in the data set on biotinyl-Phe-oxazolone came out at 1.81; in the data set on biotinyl-Ile-oxazolone it was 0.861; in the data set on biotinyl-Met-oxazolone, 0.672; with biotinyl-Val-oxazolone it was 1.06; in the data set on biotinyl-Leu-oxazolone, 0.988; in the data set with biotinyl-Trp-oxazolone, 0.744.
On to “CCAGACUUCAAGCUAUCGGUC [Fam1B.1 aminoacylation ribozyme variant]”, for which the self-aminoacylation is 1.11 in the data set with biotinyl-Phe-oxazolone; 1.41 with biotinyl-Ile-oxazolone; 1.08 in the data set on biotinyl-Met-oxazolone; 1.41 in the data set with biotinyl-Val-oxazolone; 1.16 in the data set with biotinyl-Leu-oxazolone; 0.76 in the data set with biotinyl-Trp-oxazolone.
Regarding “AACACCCUGGUCAUCGAGUGA [Fam2.1 aminoacylation ribozyme variant]”, the self-aminoacylation in the data set with biotinyl-Phe-oxazolone was determined as 7.58; in the data set with biotinyl-Ile-oxazolone it was 4.52; in the data set on biotinyl-Met-oxazolone, 7.5; with biotinyl-Val-oxazolone it was 4.39; in the data set with biotinyl-Leu-oxazolone, 6.79; with biotinyl-Trp-oxazolone, 8.34.
For the sequence “GUUACCCUGGUCCUCGAGUGA [Fam2.1 aminoacylation ribozyme variant]”, the self-aminoacylation with biotinyl-Phe-oxazolone was determined as 42.7; in the data set with biotinyl-Ile-oxazolone, 3.36; in the data set on biotinyl-Met-oxazolone, 6.3; in the data set with biotinyl-Val-oxazolone it was 4.16; with biotinyl-Leu-oxazolone, 5.97; in the data set with biotinyl-Trp-oxazolone it was 6.45.
“CCCCACUUCAAGGAAUCGGUC [Fam1B.1 aminoacylation ribozyme variant]”: the self-aminoacylation is 11.3 in the data set with biotinyl-Phe-oxazolone; 2.4 in the data set with biotinyl-Ile-oxazolone; 2.33 with biotinyl-Met-oxazolone; 2.15 in the data set on biotinyl-Val-oxazolone; 2.62 in the data set on biotinyl-Leu-oxazolone; 13 with biotinyl-Trp-oxazolone.
Consider “AUUAUCCUGGUUAUCGAGUGA [Fam2.1 aminoacylation ribozyme variant]”, for which the self-aminoacylation worked out at 71.3 in the data set on biotinyl-Phe-oxazolone; 5.55 in the data set on biotinyl-Ile-oxazolone; 12.2 in the data set with biotinyl-Met-oxazolone; 4.88 in the data set on biotinyl-Val-oxazolone; 13.5 with biotinyl-Leu-oxazolone; 14.7 in the data set on biotinyl-Trp-oxazolone.
Turning to “CUACUUCAAACAAGCAGUCUG [Fam1A.1 aminoacylation ribozyme variant]”, the self-aminoacylation in the data set on biotinyl-Phe-oxazolone was 1.06; with biotinyl-Ile-oxazolone, 0.882; in the data set on biotinyl-Met-oxazolone, 0.751; with biotinyl-Val-oxazolone, 0.775; in the data set on biotinyl-Leu-oxazolone, 0.794; with biotinyl-Trp-oxazolone, 0.577.
Take “AUUCCCCUAGCUCAUCGGGUG [Fam2.2 aminoacylation ribozyme variant]”: the self-aminoacylation worked out at 35.1 in the data set with biotinyl-Phe-oxazolone; 6.15 with biotinyl-Ile-oxazolone; 5.75 in the data set with biotinyl-Met-oxazolone; 6.05 in the data set with biotinyl-Val-oxazolone; 6.66 in the data set with biotinyl-Leu-oxazolone; 5.96 in the data set with biotinyl-Trp-oxazolone.
In the case of “AUUCACCUAGGACACCGGGUG [Fam2.2 aminoacylation ribozyme variant]”, the self-aminoacylation was 15.6 in the data set with biotinyl-Phe-oxazolone; 3.57 in the data set on biotinyl-Ile-oxazolone; 3.51 with biotinyl-Met-oxazolone; 3.63 with biotinyl-Val-oxazolone; 3.94 with biotinyl-Leu-oxazolone; 3.19 with biotinyl-Trp-oxazolone.
As for “AUUACCCUCGUCAUCCAGUGA [Fam2.1 aminoacylation ribozyme variant]”, the self-aminoacylation in the data set with biotinyl-Phe-oxazolone came to 1.18; in the data set with biotinyl-Ile-oxazolone, 1.44; with biotinyl-Met-oxazolone it was 1.51; in the data set with biotinyl-Val-oxazolone, 1.29; in the data set on biotinyl-Leu-oxazolone it was 1.94; in the data set with biotinyl-Trp-oxazolone, 1.02.
As for “CUACUUCACACAAUAGGUCUG [Fam1A.1 aminoacylation ribozyme variant]”, the self-aminoacylation came out at 1.01 in the data set on biotinyl-Phe-oxazolone; 0.6 in the data set on biotinyl-Ile-oxazolone; 0.474 with biotinyl-Met-oxazolone; 0.605 with biotinyl-Val-oxazolone; 0.469 in the data set on biotinyl-Leu-oxazolone; 0.394 in the data set on biotinyl-Trp-oxazolone.
With “AAGUUUGCUAAUAGAUGCAAG [Fam3.1 aminoacylation ribozyme variant]”, the self-aminoacylation came out at 0.814 with biotinyl-Phe-oxazolone; 0.954 with biotinyl-Ile-oxazolone; 0.789 with biotinyl-Met-oxazolone; 0.911 in the data set on biotinyl-Val-oxazolone; 0.82 with biotinyl-Leu-oxazolone; 0.784 in the data set with biotinyl-Trp-oxazolone.
Consider “AUUUACCUAGGUCGUCGGGUG [Fam2.2 aminoacylation ribozyme variant]”, for which the self-aminoacylation with biotinyl-Phe-oxazolone was found to be 9.82; with biotinyl-Ile-oxazolone, 1.46; in the data set with biotinyl-Met-oxazolone, 1.61; in the data set on biotinyl-Val-oxazolone, 1.82; with biotinyl-Leu-oxazolone it was 1.88; with biotinyl-Trp-oxazolone, 0.963.
For the sequence “UUACUUCAAACAAUAGGUCUG [Fam1A.1 aminoacylation ribozyme variant]”, the self-aminoacylation in the data set with biotinyl-Phe-oxazolone worked out at 1.69; with biotinyl-Ile-oxazolone, 1.2; in the data set on biotinyl-Met-oxazolone, 1.26; in the data set with biotinyl-Val-oxazolone it was 1.25; in the data set on biotinyl-Leu-oxazolone, 1.08; with biotinyl-Trp-oxazolone, 1.07.
As to “CUACUUCCAACAAUCGGUCGG [Fam1A.1 aminoacylation ribozyme variant]”, the self-aminoacylation in the data set on biotinyl-Phe-oxazolone stood at 0.78; with biotinyl-Ile-oxazolone, 1.04; with biotinyl-Met-oxazolone, 1.01; in the data set with biotinyl-Val-oxazolone, 1.07; in the data set on biotinyl-Leu-oxazolone it was 1.03; in the data set on biotinyl-Trp-oxazolone, 1.28.
As to “AUUACCCUGGUCACCGAGCGA [Fam2.1 aminoacylation ribozyme variant]”, the self-aminoacylation with biotinyl-Phe-oxazolone was found to be 0.94; in the data set with biotinyl-Ile-oxazolone it was 1.16; in the data set on biotinyl-Met-oxazolone, 2.08; in the data set on biotinyl-Val-oxazolone it was 1.25; in the data set with biotinyl-Leu-oxazolone, 1.54; in the data set on biotinyl-Trp-oxazolone, 0.843.
For the sequence “AUUCCCCUGGUCAGCGAGUGA [Fam2.1 aminoacylation ribozyme variant]”, the self-aminoacylation in the data set with biotinyl-Phe-oxazolone was 39.5; in the data set with biotinyl-Ile-oxazolone, 3.66; in the data set with biotinyl-Met-oxazolone it was 5.69; with biotinyl-Val-oxazolone, 4.24; with biotinyl-Leu-oxazolone, 7.02; in the data set on biotinyl-Trp-oxazolone, 8.52.
As to “AUUCACCUAGGUCACCGGUUG [Fam2.2 aminoacylation ribozyme variant]”, the self-aminoacylation in the data set on biotinyl-Phe-oxazolone came out at 7.82; with biotinyl-Ile-oxazolone, 1.92; in the data set with biotinyl-Met-oxazolone it was 1.62; in the data set with biotinyl-Val-oxazolone, 1.7; in the data set on biotinyl-Leu-oxazolone it was 1.55; with biotinyl-Trp-oxazolone, 1.29.
In the case of “CCACACAUCAAGCGAUCGGUC [Fam1B.1 aminoacylation ribozyme variant]”, the self-aminoacylation was found to be 0.766 in the data set with biotinyl-Phe-oxazolone; 0.954 in the data set with biotinyl-Ile-oxazolone; 1.09 in the data set with biotinyl-Met-oxazolone; 1.07 with biotinyl-Val-oxazolone; 0.969 with biotinyl-Leu-oxazolone; 1.38 in the data set on biotinyl-Trp-oxazolone.
For the sequence “AUCACCCGGGUCAUCGAGUGA [Fam2.1 aminoacylation ribozyme variant]”, the self-aminoacylation with biotinyl-Phe-oxazolone was found to be 51.8; in the data set on biotinyl-Ile-oxazolone it was 3.65; with biotinyl-Met-oxazolone, 7.5; in the data set on biotinyl-Val-oxazolone, 4.32; in the data set with biotinyl-Leu-oxazolone it was 7.28; with biotinyl-Trp-oxazolone, 8.12.
Turning to “CUAGAUCAAACAAUCGGUCUG [Fam1A.1 aminoacylation ribozyme variant]”, the self-aminoacylation with biotinyl-Phe-oxazolone is 2.24; with biotinyl-Ile-oxazolone, 0.703; in the data set with biotinyl-Met-oxazolone, 0.578; with biotinyl-Val-oxazolone, 0.798; in the data set with biotinyl-Leu-oxazolone, 0.708; in the data set on biotinyl-Trp-oxazolone it was 1.22.
On to “CUACUCCAAACAAUCGGUCUA [Fam1A.1 aminoacylation ribozyme variant]”, for which the self-aminoacylation with biotinyl-Phe-oxazolone came to 2.18; in the data set on biotinyl-Ile-oxazolone, 0.767; with biotinyl-Met-oxazolone, 0.638; in the data set on biotinyl-Val-oxazolone, 0.808; in the data set on biotinyl-Leu-oxazolone, 0.746; in the data set with biotinyl-Trp-oxazolone, 1.05.
